Measurements reported in PMC2818599.

Target: HLA-DR DRB1 *1101 (human)
Test: radioligand binding

IC50: 0.03 µM
Substance: HER-2/neu.59 (peptide)
